Laboratory results: PMC10632514 (2023)
Where no end group is shown, it is not given here. The star is where a group is joined. Palmitoyl = CCCCCCCCCCCCCCCC(=O)*

B1: N-terminally palmitoylated MPER peptide (peptide)
peptide: Palmitoyl-DLLELDKWASLWNWFNITNWLWYIK

Legend:
Assay in all cases: SPR; liposome-bound MPER
[1] = target: B1
[2] = target: 275
[3] = target: 203
[4] = target: 274
[5] = target: 484

| Binder | Kd [1] | Kd [2] | Kd [3] | Kd [4] | Kd [5] |
| --- | --- | --- | --- | --- | --- |
| rmAb 460 IgG1 (antibody, V domains shown) VH: EVQLQQSGAELVKPGASVKLSCTASGFNIKDTYMHWVKQRPEQGLEWIGRIDPANGNTKYDPKFQGKATITADTSSNTAYLQLSSLTSEDTAVYFCTRSRGYFGNYYFDYWGQGTTLTVSS VL: QIVLTQSPAVMSASPGERVTMTCSASSSVSYMYWYQQKPRSSPKPWIYLTSNLASGVPARFSGSGSGTSYSLTISSMEAEDAATYYCQQWSSIPLTFGAGTKLELK | 0.014 µM |  |  |  |  |
| rmAb 235 IgG1 (antibody, V domains shown) VH: QVQLQQSGTDLVRPGTSVKVSCKASGYAFTTYFIEWVKQRPGQGLEWIGVINPGSGIPNYNEMFKGKATLTADKSSSTAYLHLSSLTSDDSAVYFCARAPYYYGSSYYYFDVWGAGTTVTVSS VL: DIVMSQSPSSLAVSVGEKVTMSCKSSQSLLYSSNQKNYLAWYQQKPGQSPKLLIYWASTRDSGVPDRFTGSGSGTDFTLTISSVKAEDLAVYCCQQYYNYPFTFGAGTKLEIK | 0.011 µM |  |  |  |  |
| B1 |  | 0.018 µM | 0.029 µM | 0.063 µM | 0.0055 µM |
